Molecular target: T1, POT1 (human, UniProt Q9NUX5 1-634)
T1 sequence: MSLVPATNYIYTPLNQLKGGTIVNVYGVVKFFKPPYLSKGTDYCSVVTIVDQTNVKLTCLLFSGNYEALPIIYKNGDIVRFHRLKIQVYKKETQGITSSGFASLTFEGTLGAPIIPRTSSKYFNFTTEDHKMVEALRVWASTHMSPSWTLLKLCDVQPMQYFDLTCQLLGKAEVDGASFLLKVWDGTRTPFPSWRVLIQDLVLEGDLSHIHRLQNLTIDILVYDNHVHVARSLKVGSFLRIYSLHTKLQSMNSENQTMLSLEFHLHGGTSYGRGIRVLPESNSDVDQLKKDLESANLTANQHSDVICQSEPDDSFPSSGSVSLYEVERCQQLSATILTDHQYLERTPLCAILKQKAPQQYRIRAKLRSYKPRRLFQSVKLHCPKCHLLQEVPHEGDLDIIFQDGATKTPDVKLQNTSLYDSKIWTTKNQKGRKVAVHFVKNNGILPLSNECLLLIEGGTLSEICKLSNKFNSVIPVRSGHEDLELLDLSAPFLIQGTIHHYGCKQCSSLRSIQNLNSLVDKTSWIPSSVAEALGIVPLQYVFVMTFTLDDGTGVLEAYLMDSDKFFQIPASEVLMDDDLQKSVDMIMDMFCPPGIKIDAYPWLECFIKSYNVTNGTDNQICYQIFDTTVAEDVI
Assay: smFRET; FRET to 0.45; 10 mM Tris-HCl pH 7.5, 100 mM NaCl, 10% glycerol, oxygen scavenging system (trolox, glucose, glucose oxidase, catalase), ~23 C
Conditions: protein: recombinant; label: 3'Cy3 strand 1; Cy5 and 3'biotin strand 2; 3' overhang 24 nt; 18 bp duplex

B1: T6(TTAGGG)2T6 overhang (mixed)
DNA 1: TGGCGACGGCAGCGAGGCTTTTTTTTAGGGTTAGGGTTTTTT
DNA 2: GCCTCGCTGCCGTCGCCA
binding result: binds

From article PMC8643667, “TRF2 promotes dynamic and stepwise looping of POT1 bound telomeric overhang”
